Three molecules from patent US20110091971A1, “Differentiation of Pluripotent Stem Cells” (priority 2008, published 2011) can be followed below.

Numbering of substitutions follows the chain as printed. Values joined by “and” are separate entries in the source; they are usually repeats but may differ in a detail not shown here. Identical values can stand only once.

The assay has as its system H1 or H9 human embryonic stem cells. The assay is described as follows: Activin A bioassay: differentiation of human embryonic stem cells to definitive endoderm, cell number and SOX17 intensity by high content analysis (96-well, four days).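 On Cell Number average: Raw total cell count per well from high content imaging.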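 On Sox 17 Intensity average: total fluorescence of the cell multiplied by cell area.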 Type of assay: cell-based. Put shortly: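 Read-out was cell count and integrated SOX17 immunofluorescence by high-content imaging, with each well divided by the mean of the 100 ng/ml activin A control. Over the four-day culture, test samples were given in DMEM:F12 with 0.5% FCS plus 20 ng/ml Wnt3a for the first two days and in 2% FCS alone for the last two. Cells were H1 or H9 hESC clusters grown on Matrigel.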

The mark [1] stands for this setting: concentrated supernatant (10x; ACTD3 4x), assay dilution 1:20.
Setting [2] is: supernatant concentration 1x, assay dilution 1:20.
Where [3] appears, read: supernatant concentration 10x, assay dilution 1:20.
Setting [4] is: supernatant concentration 10x, assay dilution 1:20, assay plates #007, #009, #010.
Setting [5] is: supernatant concentration 10x, assay dilution 1:40.
Setting [6] is: supernatant concentration 10x, assay dilution 1:40, control = R&D Sys Activin A 100 ng/ml on same plate.
Where [7] appears, read: supernatant concentration 50x, assay dilution 1:20, assay plates #008, #009.
[8] abbreviates: supernatant concentration 50x, assay dilution 1:20, control = R&D Sys Activin A 100 ng/ml on same plate.
The mark [9] stands for this setting: supernatant concentration 10x, assay dilution 1:20, control = R&D Sys Activin A 100 ng/ml on same plate.

B1: ACTN1: wild type Activin A mature protein (SwissProt/UniProt: P08476), SEQ ID 2, expressed from applicant's construct (protein)
chain: GLECDGKVNICCKKQFFVSFKDIGWNDWIIAPSGYHANYCEGECPSHIAGTSGSSLSFHSTVINHYRMRGHSPFANLKSCCVPTKLRPMSMLYYDDGQNIIKKDIQNMIVEECGCS
Regarding B1, the “activity in the cell-based assay, as judged by cell number and SOX17 intensity increases” value (ACTN 1 pUnder construct versus OriGene wildtype construct, CHO-S or HEK293-F supernatants) is listed as “greater activity”. In addition, the “expression/activity of supernatant measured by SOX17 expression levels” value by setting is: (CHOS cells, even after concentrating the supernatant) “weak or negligible results”; (pUnder expression vector and HEK293F cells) “significantly improved”. For the same molecule, the “Cell Number average” value was 12233 under setting [1]; 4284 and 5466 under setting [2]; 7083 and 9254 under setting [3]; 12543 and 11568 and 15112 under setting [4]; 5924 under setting [5]; 13673 under setting [7]. For the same molecule, the “Sox 17 Intensity average” value under setting [1] stood at 1.15E+08, the “Sox 17 Intensity average” value under setting [5] is recorded as 1.10E+08 and the “Sox 17 Intensity average” value under setting [7] is 2.60E+08. Besides, the “Sox 17 Intensity % of control” value runs as follows: (concentrated supernatant (10x; ACTD3 4x), assay dilution 1:20, control = R&D Sys Activin A 100 ng/ml) 263%; under setting [6], 480.5%; under setting [8], 470.1%.

B2: ACTN48: activin A variant peptide, SEQ ID 49 (protein)
chain: B1 chain with I10L, F16N, Y39E, E41S, E43L, L77M, K78G, S79A, V82I
As for B2, the “Cell Number average” value stood at 6030 under setting [4] and 8941 under setting [7]. Moreover, the “Sox 17 Intensity average” value is, setting by setting: under setting [4], 1.77E+07; under setting [7], 3.93E+07. The “Sox 17 Intensity % of control” value reads like this: under setting [9], 71.1%; under setting [8], 157.8%.

B3: ACTN4: activin A variant peptide, SEQ ID 5 (protein)
chain: B1 chain with I10L, F16L, Y39H, E41S, E43L, A75S, N76D, L77M, K78G, S79A
Consider B3, for which, where the note is “primary screening, SOX17 expression, H1 cells”, the “higher potency of supernatant concentrated 10× relative to corresponding unconcentrated supernatant” value came to 2.6 fold. The “Cell Number average” value is given as 6380 under setting [2], 8916 under setting [3] and 6548 under setting [5]. Also, the “Sox 17 Intensity average” value is, setting by setting: under setting [2], 9.099E+07; under setting [3], 2.385E+08; under setting [5], 2.075E+08. Besides, the “Sox 17 Intensity % of control” value (supernatant concentration 1x, assay dilution 1:20, control = R&D Sys Activin A 100 ng/ml on same plate) worked out at 49.5%; the “Sox 17 Intensity % of control” value under setting [9] came out at 129.7%; the “Sox 17 Intensity % of control” value under setting [6] was 112.8%.
